Experimental data as given in US11726091B2, “Compositions and methods of diagnosing pancreatic cancer” (THE REGENTS OF THE UNIVERSITY OF CALIFORNIA, priority 2017, dated 2023).
Where a SMILES comes first, the peptide text is derived from it. Where no end group is shown, it is not given here. [ ]: non-standard residue; d: D form. The star is where a group is joined. Sta = CC(C)C[C@H](N)[C@@H](O)CC(=O)O; Isovaleryl = CC(C)CC(=O)*

Legend:
[1] = system: protease activity of mucinous cyst fluid sample; assay: MSP-MS analysis of protease inhibitor sensitivity in mucinous cyst fluid; type: biochemical, human; conditions: for number of mucinous-specific substrates whose cleavage was inhibited: 1 mM AEBSF, 2 mM 1,10-phenanthroline
Description: (§1) The MSP-MS assay was performed as previously described (34). Cyst fluid was diluted to 100 μg/mL in assay buffer (either pH 7.5 phosphate buffer or pH 3.5 acetate buffer) and pre-incubated for 10 minutes. For analysis of protease inhibitor sensitivity, 1 mM AEBSF (Sigma, A8456), 2 μM E-64 (Sigma, E3132), 2 μM pepstatin (Sigma, P5318), 2 mM 1,10-phenanthroline (Sigma, 131337), or DMSO were included in pre-incubation. The 228 tetradecapeptide library was split into two pools and diluted in assay buffer to a concentration of 1 μM of each peptide. 75 μL of diluted cyst fluid and peptide pools were then combined and incubated at room temperature. 30 μL aliquots were removed after 15 and 60 minutes, protease activity quenched with 8 M guanidinium hydrochloride, and flash-frozen in liquid N2. For recombinant gastricsin (R&D Systems, 6186-AS), cathepsin D (R&D Systems, 1014-AS), and cathepsin E (R&D Systems, 1294-AS), the MSP-MS assay was performed as described above with slight modifications: 10 nM of recombinant protease in pH 3.5 acetate buffer was used and aliquots were removed after 15, 60, and 240 minutes.
(§2) Prior to peptide cleavage site identification by mass spectrometry, samples were desalted using C18 tips (Rainin). Mass spectrometry analysis was carried out with an LTQ Orbitrap XL mass spectrometer coupled to a 10,000 psi nanoACQUITY Ultra Performance Liquid Chromatography (UPLC) System (Waters) for peptide separation by reverse phase liquid chromatography (RPLC). Peptides were separated over a C18 column (Thermo) and eluted by applying a flow rate of 300 nL/min with a 65-minute linear gradient from 2-30% acetonitrile. Survey scans were recorded over a 325-1500 m/z range and the six most intense precursor ions were fragmented by collision-induced dissociation (CID) for MS/MS.
(§3) Raw mass spectrometry data was processed to generate peak lists using MSConvert. Peak lists were then searched in Protein Prospector v. 5.10.0 (35) against a custom database containing the sequences from the 228 tetradecapeptide library. Searches used a mass accuracy tolerance of 20 ppm for precursor ions and 0.8 Da for fragment ions. Variable modifications included N-terminal pyroglutamate conversion from glutamine or glutamate and oxidation of tryptophan, proline, and tyrosine. Searches were subsequently processed using the MSP-xtractor software (http://www.craiklab.ucsf.edu/extractor.html), which extracts the peptide cleavage site and spectral counts of the corresponding cleavage products. Spectral counts were used for the relative quantification of peptide cleavage products.

[2] = system: cathepsin E and gastricsin protease activity in cyst fluid; assay: Pepstatin inhibition of fluorescent substrate cleavage by mucinous cyst fluid; type: biochemical, human; conditions: fluid from a mucinous cyst, pre-incubation with 2 μM pepstatin; FIG. 11
Description: All fluorescent protease activity assays were performed in triplicate in black, round-bottom 384 well plates. Assays were run for 1 hour in 15 μL of acetate buffer with 0.01% Tween. The pH of the acetate buffer was adjusted to promote activity of either aspartyl protease (pH 3.5 for the cathepsin E substrate and pH 2.0 for the gastricsin substrate). 10 μM of substrate was used for all assays (unless otherwise indicated) and was incubated with either 10 nM of recombinant protease or 50 μg/mL of cyst fluid protein. For kinetic analysis of gastricsin activity, the substrate concentration ranged from 0.1-25 μM. For analysis of inhibitor sensitivity, cyst fluid samples were pre-incubated with 2 μM of pepstatin. Fluorescent substrate cleavage was monitored with a Biotek Synergy HT plate reader using excitation and emission wavelengths of 328 nm and 393 nm, respectively. Selectivity of the recombinant proteases was assessed by comparing the initial velocity of substrate hydrolysis in relative fluorescent units per second (RFU/sec). For cyst fluid samples, the change in endpoint RFU was compared relative to wells that contained substrate, but no cyst fluid.

Cathepsin E [3] = molecular target: T1, Cathepsin E (Homo sapiens, UniProt P14091); assay: Fluorescent protease activity assay with recombinant cathepsin E; type: biochemical; set-up: purchased R&D Systems 1294-AS
T1 sequence (P14091 54-396): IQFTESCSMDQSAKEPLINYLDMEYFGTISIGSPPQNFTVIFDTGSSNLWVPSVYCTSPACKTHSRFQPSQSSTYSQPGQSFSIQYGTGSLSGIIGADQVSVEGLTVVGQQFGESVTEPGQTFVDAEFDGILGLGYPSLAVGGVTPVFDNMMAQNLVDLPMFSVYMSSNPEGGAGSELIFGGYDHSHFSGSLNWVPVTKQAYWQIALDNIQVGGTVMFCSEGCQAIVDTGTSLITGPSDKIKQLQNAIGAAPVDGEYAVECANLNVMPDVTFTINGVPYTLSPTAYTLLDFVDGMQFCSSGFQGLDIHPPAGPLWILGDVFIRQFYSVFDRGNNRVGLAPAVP
Description: (§4) Synthesis of internally quenched fluorescent peptides was conducted using Fmoc solid-phase peptide synthesis on a Syro II automated synthesizer (Biotage). Briefly, reactors were charged with Wang resin preloaded with Fmoc-Lys(dinitrophenol) (Anaspec, A23856). Coupling reactions were conducted on a 0.0125 mmol scale in 500 μL of DMF with 5 equivalents of Fmoc amino acid (Anaspec), 4.9 equivalents of HCTU (Anaspec), and 20 equivalents of N-methylmorpholine (NMM). Fmoc deprotection was conducted by incubation with 500 μL 40% 4-methlypiperidine in DMF, followed by 500 μL 20% 4-methlypiperidine in DMF. Substrates were capped with a […] Lys-(7-methoxycoumarin-4-acetic acid)-OH (EMD Millipore, 852095) followed by two D-Arg residues to enhance solubility. Peptides were removed from resin by incubating with 500 μL of cleavage solution (95% trifluoroacetic acid, 2.5% water, 2.5% Triisopropylsilane). […]
(§5) All fluorescent protease activity assays were performed in triplicate in black, round-bottom 384 well plates. […] Fluorescent substrate cleavage was monitored with a Biotek Synergy HT plate reader using excitation and emission wavelengths of 328 nm and 393 nm, respectively. Selectivity of the recombinant proteases was assessed by comparing the initial velocity of substrate hydrolysis in relative fluorescent units per second (RFU/sec). […]

Cathepsin E [4] = molecular target: T1, Cathepsin E; assay: Cathepsin E fluorescent substrate assay in patient cyst fluid, mucinous vs nonmucinous cysts; set-up: both proteases are released into cyst fluid in their proforms; from tissue; host or cells: human pancreatic cyst fluid; conditions: differentiating mucinous from nonmucinous cysts; 110 cyst fluid samples; cutoff 1.23-fold change in fluorescence
Description: (§6) Pancreatic cyst fluid samples were collected from preconsented patients under institutional review board oversight. All patients included in the study underwent surgical resection of their cystic lesion and have a pathologically confirmed diagnosis. The highest grade of dysplasia observed during pathological evaluation of each cystic lesion is reported. Samples were collected either at the time of surgical resection or during diagnostic endoscopic ultrasound prior to resection of the cystic lesion. Cyst fluid samples were split into 100 μL aliquots and frozen to −80° C. within 60 minutes of collection. Samples underwent at most two freeze-thaw cycles prior to experimental analysis. Total cyst fluid protein concentration was determined by the bicinchoninic acid assay. CEA levels were evaluated for the majority of samples, but were unavailable in 21 cases due to limited cyst fluid volume.
as §5, with “plates. Assays were run for 1 hour in 15 μL of acetate buffer with 0.01% Tween.” for “plates.”

Gastricsin [5] = molecular target: T2, Gastricsin (Homo sapiens, UniProt P20142); assay: Fluorescent protease activity assay with recombinant gastricsin; type: biochemical; set-up: purchased R&D Systems 6186-AS
T2 sequence (P20142 60-388): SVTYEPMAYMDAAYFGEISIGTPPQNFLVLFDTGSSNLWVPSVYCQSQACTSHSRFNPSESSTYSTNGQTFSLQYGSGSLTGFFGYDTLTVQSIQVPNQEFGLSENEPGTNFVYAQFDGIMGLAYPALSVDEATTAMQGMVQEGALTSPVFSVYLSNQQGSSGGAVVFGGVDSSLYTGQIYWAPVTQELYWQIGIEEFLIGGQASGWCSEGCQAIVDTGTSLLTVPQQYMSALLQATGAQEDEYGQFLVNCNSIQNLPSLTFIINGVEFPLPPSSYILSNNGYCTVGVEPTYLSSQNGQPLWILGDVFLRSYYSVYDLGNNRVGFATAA
Description: as §4, §5

Gastricsin [6] = molecular target: T2, Gastricsin; assay: Cleavage of peptide substrates by gastricsin (MSP-MS assay); type: biochemical; set-up: purchased R&D Systems 6186-AS; conditions: Target Protease Gastricsin; for Relative Cleavage: relative to the most cleaved substrate (1.00)
Description: as §1, §2, §3

Gastricsin [7] = molecular target: T2, Gastricsin; assay: Gastricsin fluorescent substrate assay in patient cyst fluid, mucinous vs nonmucinous cysts; set-up: both proteases are released into cyst fluid in their proforms; from tissue; host or cells: human pancreatic cyst fluid; conditions: differentiating mucinous from nonmucinous cysts; 110 cyst fluid samples; cutoff 1.23-fold change in fluorescence
Description: as §6
as §5, with “plates. Assays were run for 1 hour in 15 μL of acetate buffer with 0.01% Tween.” for “plates.”

Cathepsin E [8] = molecular target: T1, Cathepsin E; assay: Cleavage of peptide substrates by cathepsin E (MSP-MS assay); type: biochemical; set-up: purchased R&D Systems 1294-AS; conditions: Target Protease Cathepsin E; for Relative Cleavage: relative to the most cleaved substrate (1.00)
Description: as §1, §2, §3

[9] = single mucinous cyst fluid sample, FIG. 2A
[10] = single mucinous cyst fluid sample, 2 μM pepstatin, FIG. 2A

Molecule	Total Cleavage (Gastricsin [6])	Relative Cleavage (Gastricsin [6])	Total Cleavage (Cathepsin E [8])	Relative Cleavage (Cathepsin E [8])	further results
c1cnc2c(c1)ccc1cccnc12 [1,10-phenanthroline]					number of mucinous-specific substrates whose cleavage was inhibited [1, 9]: 3 substrates
Cl.NCCc1ccc(S(=O)(=O)F)cc1 [AEBSF]					number of mucinous-specific substrates whose cleavage was inhibited [1, 9]: 3 substrates
CC(C)CC(=O)N[C@H](C(=O)N[C@H](C(=O)N[C@@H](CC(C)C)[C@@H](O)CC(=O)N[C@@H](C)C(=O)N[C@@H](CC(C)C)[C@@H](O)CC(=O)O)C(C)C)C(C)C [pepstatin] (Isovaleryl-VV[Sta]A[Sta]-OH)					effect on cleavage of the mucinous-specific substrates ([1]; second mucinous cyst fluid sample, FIG. 8): block cleavage of the majority of the mucinous-specific substrates; number of additional mucinous-specific substrates whose cleavage was partially inhibited [1, 10]: 8 substrates; number of mucinous-specific substrates whose cleavage was fully inhibited [1, 10]: 20 substrates; inhibition of cleavage of gastricsin and cathepsin E fluorescent substrates [2]: fully inhibited
AGFSLPA (also: fluorophore/quencher) [AGFSL|PA]					limit-of-detection of cathepsin E (Cathepsin E [3]; fluorescence-based activity assay, FIG. 17): approximately 4 μg/mL; selectivity for cathepsin E over both cathepsin D and gastricsin (Cathepsin E [3]; initial velocity of substrate hydrolysis, 10 nM recombinant protease, 10 μM substrate): more than 100 fold; Sensitivity (Cathepsin E [4]): 70%; Specificity (Cathepsin E [4]): 92%
DEGWALQH (also: fluorophore and quencher) [DEGW|ALQH]	30	0.47			limit-of-detection of gastricsin (Gastricsin [5]; fluorescence-based activity assay, FIG. 16): approximately 600 ng/mL; selectivity for gastricsin over both cathepsins D and E (Gastricsin [5]; initial velocity of substrate hydrolysis, 10 nM recombinant protease, 10 μM substrate (FIG. 4D)): greater than 120 fold; Sensitivity (Gastricsin [7]): 93%; Specificity (Gastricsin [7]): 100%
FGIFYLNG [FGIF|YLNG, cathepsin E peptide substrate]			22	0.88	
GLYFRYE [GLY|FRYE, cathepsin E peptide substrate]			25	1.00	
HMIALYWG [HMIA|LYWG, cathepsin E peptide substrate]			10	0.40	
IKILMFYW [IKIL|MFYW, cathepsin E peptide substrate]			17	0.68	
NMKWTRVL [NMKW|TRVL, gastricsin peptide substrate]	21	0.33			
PWTWYGVK [PWTW|YGVK, gastricsin peptide substrate]	64	1.00			
VGKWSYRM [VGKW|SYRM, gastricsin peptide substrate]	22	0.34			
